Results taken from patent publication US20040253612A1.

Columns and labels:
[1] = biological target: anti-myc monoclonal antibody (doped selection experiment); assay: immunoprecipitation from 1:200 myc:pool (LP154:LP160); PCR, AlwnI digest, phosphorimager; background method 1
[2] = biological target: anti-myc monoclonal antibody (doped selection experiment); assay: second set of digests, method 2; sample equivalent to lane 4 (1:2000 myc:pool)
[3] = biological target: anti-myc monoclonal antibody (doped selection experiment); assay: immunoprecipitation; PCR and restriction digest before and after selection
[4] = biological target: anti-myc monoclonal antibody (doped selection experiment); assay: immunoprecipitation from 1:20 myc:pool (LP154:LP160); PCR, AlwnI digest, phosphorimager; background method 3
[5] = biological target: anti-myc monoclonal antibody (doped selection experiment); assay: immunoprecipitation from 1:2000 myc:pool (LP154:LP160); PCR, AlwnI digest, phosphorimager; background method 3
[6] = biological target: anti-myc monoclonal antibody (doped selection experiment); assay: second set of digests, method 2; sample equivalent to lane 3 (1:200 myc:pool)
[7] = biological target: anti-myc monoclonal antibody (doped selection experiment); assay: immunoprecipitation from 1:2000 myc:pool (LP154:LP160); PCR, AlwnI digest, phosphorimager; background method 1
[8] = biological target: anti-myc monoclonal antibody (doped selection experiment); assay: immunoprecipitation from 1:200 myc:pool (LP154:LP160); PCR, AlwnI digest, phosphorimager; background method 3
[9] = biological target: anti-myc monoclonal antibody (doped selection experiment); assay: immunoprecipitation from 1:2000 myc:pool (LP154:LP160); PCR, AlwnI digest, phosphorimager; background method 2
[10] = biological target: anti-myc monoclonal antibody (doped selection experiment); assay: immunoprecipitation from 1:20 myc:pool (LP154:LP160); PCR, AlwnI digest, phosphorimager; background method 2
[11] = biological target: anti-myc monoclonal antibody (doped selection experiment); assay: immunoprecipitation from 1:20 myc:pool (LP154:LP160); PCR, AlwnI digest, phosphorimager; background method 1
[12] = biological target: anti-myc monoclonal antibody (doped selection experiment); assay: immunoprecipitation from 1:200 myc:pool (LP154:LP160); PCR, AlwnI digest, phosphorimager; background method 2
[13] = biological target: anti-myc monoclonal antibody (doped selection experiment); assay: second set of digests, method 2; sample equivalent to lane 2 (1:20 myc:pool)

B1: RNA-protein fusion LP154 (long myc template fusion) (peptide)
peptide: MAEEQKLISEEDLLRKRREQLKHKLEQLRNSCA
modifications: C-terminus joined by an amide bond to the 3' puromycin of its own mRNA-DNA linker template LP154 (SEQ ID NO: 3)
Enrichment of Myc Template vs. Pool [1]: 16.6 fold
enrichment (fold) of myc template vs. pool [2]: 12 fold
enrichment (fold) relative to the random library [3]: 20 to 40 fold
Enrichment of Myc Template vs. Pool [4]: 8.7 fold
Enrichment of Myc Template vs. Pool [5]: 10.2 fold
enrichment (fold) of myc template vs. pool [6]: 38 fold
Enrichment of Myc Template vs. Pool [7]: 5.7 fold
Enrichment of Myc Template vs. Pool [8]: 27 fold
Enrichment of Myc Template vs. Pool [9]: 39 fold
Enrichment of Myc Template vs. Pool [10]: 10.4 fold
Enrichment of Myc Template vs. Pool [11]: 7 fold
Enrichment of Myc Template vs. Pool [12]: 43 fold
enrichment (fold) of myc template vs. pool [13]: 10.7 fold
